Results taken from patent publication US20260062463A1 (KANGYUAN BIOMEDICAL TECH DALIAN, published 2026).
Changes are numbered by the printed parent chain.

T1: AAV8 (adeno-associated virus 8, Assembled 60-mer capsid of VP1/VP2/VP3 (nested products of one cap gene), amine-coupled to a CM5 chip; the letters give one VP1 subunit only.)
T1 construct: also called adeno-associated virus serotype 8
T1 chain: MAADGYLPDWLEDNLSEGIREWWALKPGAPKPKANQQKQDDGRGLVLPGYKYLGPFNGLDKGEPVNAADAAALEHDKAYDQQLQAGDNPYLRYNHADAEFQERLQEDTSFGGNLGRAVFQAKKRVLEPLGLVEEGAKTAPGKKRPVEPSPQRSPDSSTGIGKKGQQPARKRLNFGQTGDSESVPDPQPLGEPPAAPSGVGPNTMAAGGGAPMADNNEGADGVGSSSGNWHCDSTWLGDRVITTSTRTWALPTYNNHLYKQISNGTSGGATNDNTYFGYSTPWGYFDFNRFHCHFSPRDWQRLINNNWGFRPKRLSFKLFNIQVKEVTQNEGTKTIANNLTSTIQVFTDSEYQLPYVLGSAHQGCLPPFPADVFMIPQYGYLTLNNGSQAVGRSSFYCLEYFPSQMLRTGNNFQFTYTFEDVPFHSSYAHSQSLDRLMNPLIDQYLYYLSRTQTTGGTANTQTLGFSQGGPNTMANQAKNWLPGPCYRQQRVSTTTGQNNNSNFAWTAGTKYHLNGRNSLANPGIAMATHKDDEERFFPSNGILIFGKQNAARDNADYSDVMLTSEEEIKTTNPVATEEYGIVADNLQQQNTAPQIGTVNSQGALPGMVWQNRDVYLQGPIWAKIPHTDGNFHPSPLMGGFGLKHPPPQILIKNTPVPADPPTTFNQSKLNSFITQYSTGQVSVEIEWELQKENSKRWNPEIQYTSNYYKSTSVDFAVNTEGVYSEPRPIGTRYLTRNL

B1: A4-C4 (bispecific antibody)
chain: VQLQESGGGLVQAGGSLRLSCAASGSRFSINTMGWYRQAPGKQREFVATVTRGGNTNYAESVKGRFTISRDNAKNTVYLQMNSLRPEDTAVYYCHVDEVRDSSWTTSNIWGQGTQVTVSSGGGGSGGGGSGGGGSVQLQESGGGLVQAGGSLRLSCAASGSRFSINTMGWYRQAPGKQREFVATVTRGGNTNYAESVKGRFTISRDNAKNTVYLQMNSLRPEDTAVYYCHVDEVRDSSWTTSNIWGQGTQVTVSSGGGGSGGGGSGGGGSVQLQESGGGLVQPGGSLRLSCAASGSNFRINTMGWYRQAPGKQRELVATVTRGGSTNYADSVKGRFTISRDNPKDTVYLQMNSLRPEDTAVYYCHVDEVRESSWTTSNLWGQGTQVTVSS
B2: A4-C9 (bispecific antibody)
chain: VQLQESGGGLVQPGGSLRLSCAASGSNFSINTMGWYRQAPGKQRELVATVTRGGDTNYADSVKGRFTISRDNAKNTVYLQMNSLRPEDTAVYYCHVDEIRESSWTTSNLWGQGTQVTVSSGGGGSGGGGSGGGGSVQLQESGGGLVQPGGSLRLSCAASGSNFSINTMGWYRQAPGKQRELVAALTRGGSTNYADSVKGRFTISRDNAKNTVYLQMNSLRPEDTAVYYCHVDEVRESSWTTSNLWGQGTQVTVSSGGGGSGGGGSGGGGSVQLQESGGGLVQPGGSLRLSCAASGSNFRINTMGWYRQAPGKQRELVAPVTRGGSTNYADSVKGRFTISRDNAKNTVYLQMNSLRPEDTAVYYCHVDEVRESSWTTSNLWGQGTQVTVSS
B3: A4-C5 (bispecific antibody)
chain: B2 chain with S29R, D55S, A73P, I99V, A184T, L185V, S190D, V234I, P319T, A343P
B4: A4-C6 (bispecific antibody)
chain: B2 chain with S29R, T49P, D55S, I99V, R299S, P319T, S325D, V369I
B5: A4-C7 (bispecific antibody)
chain: B2 chain with S164R, A184P, L185V, N297S, R299T, P319A, D330G, V347I, V369I, E371Q
B6: A4-C8 (bispecific antibody)
chain: VQLQESGGGLVQPGGSLRLSCAASGSNFRINTMGWYRQAPGKQRELVAPVTRGGSTNYADSVKGRFTISRDNAKNTVYLQMNSLRPEDTAVYYCHVDEVRESSWTTSNLWGQGTQVTVSSGGGGSGGGGSGGGGSVQLQESGGGLVQPGGSLRLSCAASGSNFSINTMGWYRQAPGKQRELVATVTRGGDTNYADSVKGRFTISRDNAKNTVYLQMNSLRPEDTAVYYCHVDEIRESSWTTSNLWGQGTQVTVSSGGGGSGGGGSGGGGSVQLQESGGGLVQPGGSLRLSCAASGSNFSINTMGWYRQAPGKQRELVAALTRGGSTNYADSVKGRFTISRDNAKNTVYLQMNSLRPEDTAVYYCHVDEVRESSWTTSNLWGQGTQVTVSS
B7: A4-D2 (VHH)
chain: VQLQESGGGLVQAGGSLRLSCAASGRGFSINTMGWYRQAPGKQRELVAAVTRGGTTNYADSVKGRFTISRDNAKNTVYLQMNSLRPEDTAVYYCHVDEVRQSSWTTSNLWGQGTQVTVSSGGGGSGGGGSGGGGSVQLQESGGGLVQAGGSLRLSCAASGRGFSINTMGWYRQAPGKQRELVAAVTRGGTTNYADSVKGRFTISRDNAKNTVYLQMNSLRPEDTAVYYCHVDEVRQSSWTTSNLWGQGTQVTVSSGGGGSGGGGSGGGGSVQLQESGGGLVQAGGSLRLSCAASGRGFSINTMGWYRQAPGKQRELVAAVTRGGTTNYADSVKGRFTISRDNAKNTVYLQMNSLRPEDTAVYYCHVDEVRQSSWTTSNLWGQGTQVTVSSGGGGSGGGGSGGGGSVQLQESGGGLVQAGGSLRLSCAASGRGFSINTMGWYRQAPGKQRELVAAVTRGGTTNYADSVKGRFTISRDNAKNTVYLQMNSLRPEDTAVYYCHVDEVRQSSWTTSNLWGQGTQVTVSS
B8: A4-D5 (other)
chain: VQLQESGGGLVQPGGSLRLSCVASGSSFSINTMGWYRRAPGKQRELVATVTRDGSTNYANSVKGRFTISRDNAKNTVYLQMNSLRPEDTAVYYCHVDEVRQSSWTTSNLWGQGTQVTVSSGGGGSGGGGSGGGGSVQLQESGGGLVQPGGSLRLSCVASGSSFSINTMGWYRRAPGKQRELVATVTRDGSTNYANSVKGRFTISRDNAKNTVYLQMNSLRPEDTAVYYCHVDEVRQSSWTTSNLWGQGTQVTVSSGGGGSGGGGSGGGGSVQLQESGGGLVQPGGSLRLSCVASGSSFSINTMGWYRQAPGKQRELVATVTRDGSTNYANSVKGRFTISRDNAKNTVYLQMNSLRPEDTAVYYCHVDEVRQSSWTTSNLWGQGTQVTVSSGGGGSGGGGSGGGGSVQLQESGGGLVQPGGSLRLSCVASGSSFSINTMGWYRRAPGKQRELVATVTRDGSTNYANSVKGRFTISRDNAKNTVYLQMNSLRPEDTAVYYCHVDEVRQSSWTTSNLWGQGTQVTVSS
B9: A4-052 (VHH)
VHH: VQLQESGGGLVQPGGSLRLSCAASGSIFIINTMGWYRQAPGKQRELVAAVTRGGSTNYADSVKGRFTISRDNAKNTVYLQMNSLRPEDTAVYYCHVDEVRQSSWTTSNLWGQGTQVTVSS

Assays:
AAV5 = biological target: T2, AAV5 (adeno-associated virus 5, Assembled 60-mer capsid of VP1/VP2/VP3 (nested products of one cap gene), amine-coupled to a CM5 chip; the letters give one VP1 subunit only.); assay: SPR, AAV amine-coupled to CM5 chip
T2 construct: also called adeno-associated virus serotype 5

AAV9 = biological target: T3, AAV9 (adeno-associated virus 9, Assembled 60-mer capsid of VP1/VP2/VP3 (nested products of one cap gene), amine-coupled to a CM5 chip; the letters give one VP1 subunit only.); assay: SPR, AAV amine-coupled to CM5 chip
T3 construct: also called adeno-associated virus serotype 9

AAV8 [1] = biological target: T1, AAV8; assay: SPR, AAV amine-coupled to CM5 chip
AAV8 [2] = biological target: T4, AAV8 (adeno-associated virus 8); assay: SPR, AAV on CM5 chip
T4 construct: also called adeno-associated virus serotype 8
Procedure: AAV was amine-coupled to a CM5 sensor chip at a density of 500-800 response units (RU). Nanobodies were injected at seven concentrations (1-100 nM) with a flow rate of 45 μL/min, and chip regeneration was performed using glycine-HCl (pH 1.5).

Binder | Kd (AAV5) [nM] | koff (AAV5) [s⁻¹] | kon (AAV5) [M⁻¹ s⁻¹] | Kd (AAV9) [nM] | koff (AAV9) [s⁻¹] | kon (AAV9) [M⁻¹ s⁻¹] | Kd (AAV8 [1]) [nM] | koff (AAV8 [1]) [s⁻¹] | kon (AAV8 [1]) [M⁻¹ s⁻¹] | kon (AAV8 [2]) [M⁻¹ s⁻¹]
B1 | 6.72 | 0.00121 | 180000 | 1.87 | 0.00031 | 165000 | 2.36 | 0.00025 | 106000 | –
B2 | 0.777 | 5e-05 | 64300 | 0.669 | 0.00013 | 194000 | 1.14 | 0.00013 | 114000 | –
B3 | 7.86 | 0.0013 | 165000 | 1.68 | 0.0002 | 119000 | 4.97 | 0.00091 | 183000 | –
B4 | 0.785 | 0.000139 | 177000 | 0.55 | 2.5e-05 | 45400 | 2.67 | 0.00044 | 165000 | –
B5 | 0.0732 | 3.2e-05 | 437000 | 0.127 | 1.75e-05 | 137000 | 3.7 | 0.00047 | 127000 | –
B6 | 0.69 | 0.00013 | 188000 | 0.279 | 5e-05 | 179000 | 2.81 | 0.00037 | 132000 | –
B7 | 0.0996 | 5.7e-06 | 57200 | 0.304 | 9e-06 | 29600 | 0.0821 | 3.6e-06 | 43900 | –
B8 | 0.318 | 1.34e-05 | 42100 | 0.117 | 4.3e-06 | 36900 | 0.0836 | 5e-06 | 59800 | –
B9 | – | – | – | – | – | – | – | – | – | 31800
